Literature values in publication PMC3429939.
pKd: −log10 of the molar value.

Molecular target: galectin-1 CRD (Homo sapiens) (UniProt P09382)

Substance: galectin-1 CRD (from UniProt P09382)
- pKd: 5.15
